Source: PMC10055539 (Research Square, 2023)
Residue numbers refer to the chain shown, from its start. Names and notes keep the numbering of the source. Ends that are not written are not given here. * marks the point of attachment. Cbz = O=C(OCc1ccccc1)*

B1: Thermoplasma acidophilum 20S proteasome β subunit (natural protein, T. acidophilum, UniProt P28061 9-211, looked up)
chain: TTTVGITLKDAVIMATERRVTMENFIMHKNGKKLFQIDTYTGMTIAGLVGDAQVLVRYMKAELELYRLQRRVNMPIEAVATLLSNMLNQVKYMPYMVQLLVGGIDTAPHVFSIDAAGGSVEDIYASTGSGSPFVYGVLESQYSEKMTVDEGVDLVIRAISAAKQRDSASGGMIDVAVITRKDGYVQLPTDQIESRIRKLGLIL
notes: proteasome subunit beta of the Thermoplasma acidophilum 20S proteasome; Single subunit of m1, written for the subunit-subunit rows of the structures; also called T20S β subunit; source: part of the purified T20S (purified as described [42], via 8XHis tags on the C-terminus of β subunit)
B2: Thermoplasma acidophilum 20S proteasome α subunit, wild type (natural protein, T. acidophilum)
chain: MQQGQMAYDRAITVFSPDGRLFQVEYAREAVKKGSTALGMKFANGVLLISDKKVRSRLIEQNSIEKIQLIDDYVAAVTSGLVADARVLVDFARISAQQEKVTYGSLVNIENLVKRVADQMQQYTQYGGVRPYGVSLIFAGIDQIGPRLFDCDPAGTINEYKATAIGSGKDAVVSFLEREYKENLPEKEAVTLGIKALKSSLEEGEELKAPEIASITVGNKYRIYDQEEVKKFL
notes: proteasome subunit alpha of the Thermoplasma acidophilum 20S proteasome; Single subunit of m1, written for the subunit-subunit rows of the structures; also called T20S α subunit; source: part of the purified T20S (purified as described [42], via 8XHis tags on the C-terminus of β subunit)
B3: Thermoplasma acidophilum 20S proteasome α subunit with the L81Y mutation (natural protein, T. acidophilum)
chain: B2 chain with L81Y
notes: proteasome subunit alpha of the Thermoplasma acidophilum 20S proteasome, L81Y; Subunit of the T20S-αL81Y proteasome whose cryo-EM structure is solved here; also called T20S-αL81Y α subunit; source: part of the purified T20S-αL81Y (overlapping PCR site-directed mutagenesis; purified via 8XHis tags on the C-terminus of β subunit)
B4: Z-Tyr-Ala (carboxybenzyl-tyrosine-alanine), HbYX-like dipeptide mimetic (peptide)
peptide: Cbz-Tyr-Ala
B5: N-acetylated PAN C-terminus peptide, six residues (peptide)
peptide: Ac-LDVLYR

Assays:
[1] = target: Thermoplasma acidophilum wild type 20S proteasome (T. acidophilum) (UniProt P25156)
[2] = target: B2; assay: cryo-EM structure; 0.5 mg/mL WT T20S in 50mM Tris pH 7.4, 150mM NaCl; Titan Krios; homogeneous refinement with D7 symmetry; closed gate; conditions: both partners purified
[3] = target: B3; assay: cryo-EM structure; 0.5 mg/mL T20S-αL81Y in 50mM Tris pH 7.4, 150mM NaCl; Titan Krios; homogeneous refinement with D7 symmetry; partially open gate; conditions: both partners purified
[4] = target: the molecule itself; assay: as above
[5] = target: the molecule itself; assay: cryo-EM structure; 0.5 mg/mL WT T20S in 50mM Tris pH 7.4, 150mM NaCl; Titan Krios; homogeneous refinement with D7 symmetry; closed gate
[6] = target: Thermoplasma acidophilum wild type 20S proteasome (T. acidophilum) (UniProt P25156); remark: listed apart in the source
[7] = target: Mammalian 20S proteasome isolated from bovine liver (bovine (isolated from bovine liver), UniProt Q2YDE4 1-246; Q3T0Y5 1-234; Q3ZCK9 1-261; Q3ZBG0 1-248; Q5E987 1-241; Q3T0X5 …); assay: cell-based or functional assay

Question: “N-acetylated PAN C-terminus peptide, three residues (Ac-LYR)” was tested. Which LFP hydrolysis (rfu/min) by 7nM WT T20S with N-terminally acetylated peptide (200 μM), relative to DMSO; gate opening [1] did it give?
Answer: 2 fold

Question: Does B1 bind [2]?
Answer: binds

Question: Does B1 bind [3]?
Answer: binds

Question: Does B1 bind [4]?
Answer: binds

Question: Does B2 bind [5]?
Answer: binds

Question: Does B3 bind [4]?
Answer: binds

Question: How did the LFP hydrolysis (rfu/min) by 7nM WT T20S with ZYA (2.5mM), normalized to DMSO; gate opening [6] turn out when B4 was run?
Answer: 13 fold

Question: And the “nLPnLD-AMC hydrolysis by mammalian 20S (0.5 nM), dose response of ZYA, normalized to DMSO: activation at saturation” value [7]?
Answer: ~50 fold

Question: How did the LFP hydrolysis (rfu/min) by 7nM WT T20S with N-terminally acetylated peptide (200 μM), relative to DMSO; gate opening [1] turn out when B5 was run?
Answer: > 10 fold
